{"source": "paper PMC3469515", "about": "(Molecular Biology of the Cell, 2012)", "biological_target": "the molecule itself", "assay": "AUC"}
{"protein": "Mid1p construct M1-14 (residues 1–578) (domain or fragment, S. pombe, UniProt P78953 1-578, looked up) MKEQEFSYREAKDVSLDSKGLENSFLSSPNREKTPLFFEGNSNETSGYDQTKNFTHGDGDMSLGNLSELNVATDLLESLDLRSMYMHGYGHLDSSFSSQHSPDNRKRMSSTSVFKRINSEEEGRIPSLTYSAGTMNSTSSSTASLKGADIVADYETFNPDQNLAELSFDRSKSSRKRAVEVAEFSRAKTMSPLEYTVQHPYQSHNELSTNPARARAGSVPNLARIPSDVKPVPPAHLSASSTVGPRILPSLPKDTTEDNPALERVETTASLDMDYKPLEPLAPIQEAPVEDTSEPFSSVPEATLDDSDISTESLRKKVLAKMEAKRISSGSSYASTLRKVYDFSELSLPTNGKDYDELYLQSSRNSEPEISTIINDSLQQENMDEDISATSIPKSQAAYGHGSVTYHEVPRYNLTSASVGYSISSQRGRIKSSSTIDNLSAILSSEDLRHPSMQPVPGTKRTYSNYCENEPNKSSQSLVSSESHNVEGWNYSETGTVGFYDPSAEISASIDELRQSTPVARDSELLSRAHSFDLNRLDLPSQDKSTSYEVPNGTENQSPRPVTSLGFVNETFFEEKPK", "values": [{"measurement": "stoichiometry N", "value": "> 8"}]}
